No end group written: not given here.
T1: C-terminal domain of E. coli TolA (E. coli)
T1 sequence (P19934 whole entry, looked up): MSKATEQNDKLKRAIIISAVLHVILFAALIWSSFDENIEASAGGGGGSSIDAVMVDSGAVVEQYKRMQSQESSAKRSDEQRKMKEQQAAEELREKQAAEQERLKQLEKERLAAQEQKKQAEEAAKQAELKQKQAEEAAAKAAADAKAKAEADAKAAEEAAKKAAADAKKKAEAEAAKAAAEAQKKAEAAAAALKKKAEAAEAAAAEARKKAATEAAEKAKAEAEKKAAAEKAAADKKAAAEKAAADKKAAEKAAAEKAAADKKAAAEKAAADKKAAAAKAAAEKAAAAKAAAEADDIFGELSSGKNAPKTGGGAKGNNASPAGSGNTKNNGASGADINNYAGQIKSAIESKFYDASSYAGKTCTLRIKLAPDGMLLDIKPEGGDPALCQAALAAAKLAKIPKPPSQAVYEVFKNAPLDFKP


Tests used:
[1] = molecular target: FITC-labelled P. aeruginosa TolB[22-34] peptide (Pseudomonas aeruginosa); assay: fluorescence polarisation
[2] = molecular target: T1, C-terminal domain of E. coli TolA (E. coli); assay: ITC

P. aeruginosa TolA (residues 224-344) lacking its short C-terminal α-helix, sequence (P50600 224-344): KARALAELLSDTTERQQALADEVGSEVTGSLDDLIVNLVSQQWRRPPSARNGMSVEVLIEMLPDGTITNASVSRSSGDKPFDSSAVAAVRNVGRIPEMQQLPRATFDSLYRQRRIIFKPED
C-terminal domain of Pseudomonas aeruginosa TolA (TolA^224-347), sequence (P50600 224-347): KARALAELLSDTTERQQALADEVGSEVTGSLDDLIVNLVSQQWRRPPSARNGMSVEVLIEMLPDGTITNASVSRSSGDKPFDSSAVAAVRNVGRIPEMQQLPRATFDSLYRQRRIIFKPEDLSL

Molecule | Kd [1] | koff [1] | kon [1] | Kd [2] | dH [2] | stoichiometry N [2]
P. aeruginosa TolA (residues 224-344) lacking its short C-terminal α-helix (from UniProt P50600 224-344) (domain or fragment) | 86 µM | 1.4 s⁻¹ | 23800 M⁻¹ s⁻¹ |  |  | 
C-terminal domain of Pseudomonas aeruginosa TolA (TolA^224-347) (from UniProt P50600 224-347) (domain or fragment) | 250 µM | 0.9 s⁻¹ | 7400 M⁻¹ s⁻¹ |  |  | 
EVRIVIDSGVDS-NH2 [E. coli TolB peptide (residues 22-33)] |  |  |  | 44 µM | -3.79 kcal/mol | 0.56

From paper doi:10.1101/790931
